One assay addresses T1, recombinant PACE4 (Homo sapiens, UniProt P29122).
T1 construct: made in house; host or cells: S2 cells
T1 sequence (P29122 150-969): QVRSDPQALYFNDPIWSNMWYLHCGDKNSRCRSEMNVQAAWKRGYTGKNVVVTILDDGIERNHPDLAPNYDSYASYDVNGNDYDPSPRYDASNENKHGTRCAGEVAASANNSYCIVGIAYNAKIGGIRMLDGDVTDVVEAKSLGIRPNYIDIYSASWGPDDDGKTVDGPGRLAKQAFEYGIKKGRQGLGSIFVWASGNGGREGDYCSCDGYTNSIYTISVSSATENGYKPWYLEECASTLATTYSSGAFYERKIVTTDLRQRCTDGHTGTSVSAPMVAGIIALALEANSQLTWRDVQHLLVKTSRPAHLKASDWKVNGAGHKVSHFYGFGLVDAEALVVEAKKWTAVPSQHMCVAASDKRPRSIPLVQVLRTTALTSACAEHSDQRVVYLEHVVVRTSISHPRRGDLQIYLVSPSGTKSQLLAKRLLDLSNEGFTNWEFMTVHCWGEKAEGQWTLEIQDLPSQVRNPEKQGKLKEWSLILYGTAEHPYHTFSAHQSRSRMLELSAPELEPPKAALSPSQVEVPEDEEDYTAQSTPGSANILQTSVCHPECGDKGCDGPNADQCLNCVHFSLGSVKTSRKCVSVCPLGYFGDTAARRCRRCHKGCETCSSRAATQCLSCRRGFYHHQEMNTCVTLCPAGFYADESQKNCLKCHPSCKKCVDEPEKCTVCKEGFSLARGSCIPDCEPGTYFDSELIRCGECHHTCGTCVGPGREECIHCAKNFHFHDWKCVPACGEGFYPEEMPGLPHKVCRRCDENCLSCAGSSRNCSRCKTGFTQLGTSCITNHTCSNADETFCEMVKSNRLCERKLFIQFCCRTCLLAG
The experiment in a line: GDF-15 spanning peptide cleavage monitored by HPLC. Particulars: 37° C., 1 h, pH 7.5. It counts as biochemical. An excerpt: (§1) GDF-15 is known to supports both the proliferation and clonogenic potential of LNCaP cells, which is also in line with the observed phenotypes for both PACE4 knockdown and overexpressing cells. This protein is synthetized as a 35 kDa proprotein which requires a PC-based cleavage at the […]^196↓, site to generate a ˜17 kDa C-terminal mature form that associates as a disulfide-linked dimer further secreted in the medium. GDF-15 is only detected in LNCaP cells whereas DU145 express very low levels in both medium and cell lysates (FIGS. 10C and D). […]
(§2) GDF-15 peptide (40 μg) was incubated at 37° C. with recombinant PACE4 or soluble furin (16U) in 100 mM Hepes buffer containing 1 mM CaCl2, 1 mM 3-mercaptoethanol, and 1.8 mg/mL BSA, pH 7.5 (total sample volume: 300 μl) over a period of 1 h. […] After incubation, the reactions were immediately analyzed by the analytical HPLC (Agilent Technologies, 1100 series with a diode array detector and a fraction collector; injection volume: 95 μl, gradient: 2 to 25% […] in 50 min; [A]0.1% aq TFA and [B] acetonitrile+0.1% aq TFA; column: an Agilent Eclipse XDB C18 column (5 μm, 4.6×250 mm). The collected fractions were analysed by SELDI-TOF mass spectrometer (Bio-Rad Laboratories) to identify the cleavage product.

The next assay deals with T2, soluble furin (Homo sapiens, UniProt P09958).
T2 construct: recombinant PACE4 or soluble furin (16U); made in house; host or cells: S2 cells (said of recombinant PCs in general)
T2 sequence (P09958 108-715 limits assumed): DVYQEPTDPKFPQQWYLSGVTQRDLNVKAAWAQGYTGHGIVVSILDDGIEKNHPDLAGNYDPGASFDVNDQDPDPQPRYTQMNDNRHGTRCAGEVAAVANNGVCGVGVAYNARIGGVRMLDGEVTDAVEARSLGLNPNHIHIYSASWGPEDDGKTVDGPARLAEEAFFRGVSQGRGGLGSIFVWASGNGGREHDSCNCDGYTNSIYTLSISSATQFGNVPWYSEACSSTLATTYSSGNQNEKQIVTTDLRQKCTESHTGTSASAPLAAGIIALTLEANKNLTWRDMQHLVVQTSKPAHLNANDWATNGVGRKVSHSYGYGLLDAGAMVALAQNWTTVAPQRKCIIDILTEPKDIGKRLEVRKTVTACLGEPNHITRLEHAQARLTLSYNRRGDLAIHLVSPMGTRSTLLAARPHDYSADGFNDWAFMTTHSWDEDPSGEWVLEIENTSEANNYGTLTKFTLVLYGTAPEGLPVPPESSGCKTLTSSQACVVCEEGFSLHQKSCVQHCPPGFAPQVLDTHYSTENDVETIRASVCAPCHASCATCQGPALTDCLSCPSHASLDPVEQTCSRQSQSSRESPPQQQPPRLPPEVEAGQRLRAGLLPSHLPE
Kind of assay: GDF-15 spanning peptide cleavage monitored by HPLC. It counts as biochemical. Particulars: 37° C., 1 h, pH 7.5.
Description: as §1, §2

As for “QAARGRRRARARNG (Ac-QAARGRRRARARNG-NH2) [synthetic N-acetylated peptide spanning the GDF-15 cleavage site]”, the “cleavage of peptide at the QAARGRRRAR site” value with recombinant PACE4 and with soluble furin was “cleaved by both PCs” in each case.

The values are drawn from patent US20190316211A1, “ONCOGENIC ALTERNATIVE SPLICING SWITCH OF PACE4 IN CANCER” (SOCIETE DE COMMERCIALISATION DES PRODUITS DE LA RECHERCHE …, priority 2016, published 2019).
